For test [1], the target named is T1, Aβ3-28 monomer (UniProt P05067 674-699).
T1 construct: range 3-28 (Aβ numbering)
The experiment in a line: inhibition ELISA, antigen titrated in solution, AβpE3-40 coat. How it is done:
(§1) The humanized antibodies were incubated at a fixed concentration (0.5 μg/ml) with titrating concentrations of the different Aβ antigens. After incubation for 45 min at 900 rpm to reach equilibrium, the antibody-Aβ samples were added to a blocked and washed ELISA plate with an AβpE3-40 coat (0.5 μM). The samples were incubated on the plate for 25 min without shaking followed by washing, incubation with detection antibody, another washing step and finally incubation with alkaline phosphatase substrate.
(An ELISA detects its analyte on a solid surface through an enzyme-linked reagent.)

Test [2] has as its target T2, AβpE3-28 monomer (UniProt P05067 674-699, pyroglutamate at position 3 (N-terminal residue)).
T2 construct: range 3-28 (Aβ numbering)
The description is as above. How it is done:
as §1

Test [3] deals with T3, AβpE3-40 monomer (UniProt P05067 674-711, pyroglutamate at position 3 (N-terminal residue)).
T3 construct: range 3-40 (Aβ numbering); Synthetic peptide (Bachem/Anaspec), verified monomeric by SEC; also called monomeric AβpE3-40
Briefly: SPR, antibody immobilised, monomer injected, 1:1 fit. How it is done:
(§2) Single cycle kinetics with the antibodies immobilized on a CM5 chip was used to measure the binding of the antibodies to the AβpE3-40 monomer. For the measurements, 5 μg/ml of analyte antibody was immobilized on the chip. […] Regeneration of the surface between cycles was done by injecting 30 μl 3 M MgCl₂. The binding data was fitted to a 1:1 interaction model.
(§3) In all SPR experiments, 1×HBS-EP+ (Cytiva, cat. no. BR100669) was used to dilute antibodies and target antigens. Experiments were performed at 25° C.

The target of test [4] is T4, Aβ1-42 protofibrils (UniProt P05067 672-713).
T4 construct: range 1-42 (Aβ numbering); Soluble aggregates made from Aβ1-42 monomer
The experiment in a line: inhibition ELISA, antigen titrated in solution, AβpE3-40 coat.

Test [5] has as its target T5, Aβ1-40 monomer (UniProt P05067 672-711).
T5 construct: range 1-40 (Aβ numbering)
The description is as above.

Test [6] concerns the target T3, AβpE3-40 monomer. Described as above.
Test [7] addresses T6, AβpE3-42 protofibrils (UniProt P05067 674-713, pyroglutamate at position 3 (N-terminal residue)).
T6 construct: range 3-42 (Aβ numbering); Soluble aggregates made from AβpE3-42 peptide, purified in the void peak of SEC; also called AβpE3-42 PF
The test is described as above.

Test [8] concerns the target T3, AβpE3-40 monomer. The experiment in a line: SPR, antibody immobilised, monomer injected, 1:1 fit. How it is done: as §2, §3
(§4) Affinity evaluation and KD determination by surface plasmon resonance: Binding interactions between antigens and antibodies were evaluated by SPR using a Biacore 8K instrument (Cytiva) according to standard procedures.
The source holds these as a separate data set.

Test [9] concerns the target T6, AβpE3-42 protofibrils. The experiment in a line: SPR, protofibrils immobilised, antibody injected, 1:1 fit, apparent. How it is done:
(§5) Single cycle kinetics was also used to measure binding of the antibodies to AβpE3-42 protofibrils. […] Regeneration of the surface between cycles was done by injecting 30 μl 10 mM glycine-HCl pH 1.7. The binding data was fitted to a 1:1 interaction model.
as §3
(In SPR one partner is held on a chip, and binding of the other changes the refractive index at the surface.)

Test [10] has as its target T1, Aβ3-28 monomer. The experiment in a line: inhibition ELISA, antigen titrated in solution, AβpE3-40 coat. How it is done: as §1
This is another data set of the same source.

A further test concerns the target T7, AβpE11-28 monomer (UniProt P05067 682-699, pyroglutamate at position 11 (N-terminal residue)).
T7 construct: range 11-28 (Aβ numbering)
T7 peptide (looked up): EVHHQKLVFFAEDVGSNK
The test is described as above. How it is done: as §1

For the next test, the target named is T8, Aβ5-28 monomer (UniProt P05067 676-699).
T8 construct: range 5-28 (Aβ numbering)
The description is as above. How it is done: as §1

The next test concerns the target T9, Aβ2-28 monomer (UniProt P05067 673-699).
T9 construct: range 2-28 (Aβ numbering)
Described as above. How it is done:
as §1

Test [11] has as its target T2, AβpE3-28 monomer. The test is described as above. How it is done:
as §1
This is another data set of the same source.

The target in test [12] is T10, Aβ1-28 monomer (UniProt P05067 672-699).
T10 construct: range 1-28 (Aβ numbering)
The description is as above. How it is done:
as §1

For the next test, the target named is T11, Aβ4-28 monomer (UniProt P05067 675-699).
T11 construct: range 4-28 (Aβ numbering)
The description is as above. How it is done: as §1

The target in test [13] is T6, AβpE3-42 protofibrils. Briefly: SPR, protofibrils immobilised, antibody injected, 1:1 fit, apparent; Table 10; apparent KD on AβpE3-42 protofibrils. How it is done: as §5, §3
For test [14], the target named is T4, Aβ1-42 protofibrils. The experiment in a line: inhibition ELISA, antigen titrated in solution, AβpE3-40 coat. How it is done:
(§6) The humanized antibodies were incubated at a fixed concentration (0.1 μg/ml) with titrating concentrations of the different Aβ antigens. After incubation for 45 min at 900 rpm to reach equilibrium, the antibody-Aβ samples were added to a blocked and washed ELISA plate with an AβpE3-40 coat (0.5 μM). The samples were incubated on the plate for 25 min without shaking followed by washing, incubation with detection antibody, another washing step and finally incubation with alkaline phosphatase substrate.
This is another data set of the same source.

Test [15] has as its target T5, Aβ1-40 monomer. Described as above. How it is done:
as §6
This is another data set of the same source.

The target in test [16] is T3, AβpE3-40 monomer. The description is as above. How it is done: as §6
The source holds these as a separate data set.

The target of test [17] is T6, AβpE3-42 protofibrils. The description is as above. How it is done:
as §6
This is another data set of the same source.

The target of test [18] is T6, AβpE3-42 protofibrils. The experiment in a line: SPR, protofibrils immobilised, antibody injected, 1:1 fit, apparent. How it is done: as §5, §3, §4
This is another data set of the same source.

In test [19] the target is T6, AβpE3-42 protofibrils. The experiment in a line: SPR, protofibrils immobilised, antibody injected, 1:1 fit, apparent; apparent KD on AβpE3-42 protofibrils. How it is done:
as §5, §3

For test [20], the target named is T6, AβpE3-42 protofibrils. The experiment in a line: SPR, protofibrils immobilised, antibody injected, 1:1 fit, apparent; binding to AβpE3-42 protofibrils; KD in pM. How it is done:
as §5, §3, §4

The target in test [21] is T10, Aβ1-28 monomer. Briefly: inhibition ELISA, antigen titrated in solution, AβpE3-40 coat. How it is done:
as §1
This is another data set of the same source.

Where a chain is given by its changes, count along the chain named. Names and notes keep the numbering of the source. Where two headings read alike, the source gives them in different places.

Consider three molecules from patent US20250388664A1 (BIOARCTIC, published 2025).

For orientation: IC50 means the midpoint of a concentration-inhibition curve. As a reminder, the koff is the rate constant with which the complex falls apart. What is called kon is the second-order rate constant of association.

T5 sequence (P05067 672-711): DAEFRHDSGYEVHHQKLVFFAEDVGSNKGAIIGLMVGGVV
T4 sequence (P05067 672-713): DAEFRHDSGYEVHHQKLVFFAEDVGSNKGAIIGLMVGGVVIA
T10 sequence (P05067 672-699): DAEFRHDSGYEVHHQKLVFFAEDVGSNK
T3 sequence (P05067 674-711): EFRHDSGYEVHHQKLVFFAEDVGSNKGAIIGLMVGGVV
T2 sequence (P05067 674-699): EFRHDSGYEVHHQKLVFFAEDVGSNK
T6 sequence (P05067 674-713): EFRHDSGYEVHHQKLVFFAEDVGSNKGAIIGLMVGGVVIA
T9 sequence (P05067 673-699): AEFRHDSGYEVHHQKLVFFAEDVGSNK
T11 sequence (P05067 675-699): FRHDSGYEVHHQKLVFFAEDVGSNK
T8 sequence (P05067 676-699): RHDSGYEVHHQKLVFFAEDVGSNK

B1: H2L7 (antibody, human IgG1, kappa, V domains shown)
VH: EVQLVQSGAEVKKPGASVRLSCKASGYSFTGFTMNWVRQALGQGLEWMGLINPYNGVTTYNQKFKGRLTMTRDMSTRTVYMDLSSLRYEDTAVYYCTREGNWEGVYWGQGTLVTVSS
VL: EIVLTQSPLSLSVTLGQSASISCRSSQSLLDSNGKTYLHWFILRPGQSPRRLIYLVSILDSGVPDRFSGSGSGTDFTLKISRVEAEDVGVYYCVQGTHFPFTFGSGTKLEIKR
notes: Humanized IgG1/kappa, expressed in CHO cells; also called humanized Pyr12.2 variant H2L7; VH2/VL7
Take B1: the IC50 in the test with Aβ3-28 monomer [1] is 2350 nM; in the test with AβpE3-28 monomer [2], 3.6 nM; with Aβ1-42 protofibrils [4], > 132 nM; with Aβ1-40 monomer [5], > 500 nM; with AβpE3-40 monomer [6] it was 2.35 nM; with AβpE3-42 protofibrils [7], 3 nM. For the same molecule, the IC50 is 1870 nM in the test with Aβ3-28 monomer [10]; > 12500 nM with AβpE11-28 monomer; > 12500 nM with Aβ5-28 monomer; > 12500 nM in the test with Aβ2-28 monomer; 5.5 nM with AβpE3-28 monomer [11]; > 12500 nM with Aβ1-28 monomer [12]. For the same molecule, the IC50 is > 12500 nM with Aβ4-28 monomer; > 500 nM with Aβ1-42 protofibrils [14]; > 12500 nM with Aβ1-40 monomer [15]; 2.6 nM in the test with AβpE3-40 monomer [16]; 2.5 nM with AβpE3-42 protofibrils [17]. Moreover, the Kd with AβpE3-40 monomer [3] came to 2.54 nM; with AβpE3-40 monomer [8], 2.54 nM; in the test with AβpE3-42 protofibrils [13] it was 0.173 nM. In addition, the koff was 0.000125 s⁻¹ with AβpE3-40 monomer [3], 0.000125 s⁻¹ with AβpE3-40 monomer [8], 1.79e-05 s⁻¹ with AβpE3-42 protofibrils [9] and 1.79e-05 s⁻¹ with AβpE3-42 protofibrils [18]. Further, the on-rate (kon) with AβpE3-40 monomer [3] was 50500 M⁻¹ s⁻¹; in the test with AβpE3-40 monomer [8] it was 50500 M⁻¹ s⁻¹; in the test with AβpE3-42 protofibrils [9], 107000 M⁻¹ s⁻¹; with AβpE3-42 protofibrils [18], 107000 M⁻¹ s⁻¹.

B2: H9L8 (antibody, human IgG1, kappa, V domains shown)
VH: QVQLVQSGPEVKKPGSSVKVSCKASGYSFTGFTMNWVRQTPGKGLEWIGLINPYNGVTTYNQKFKGRVTITADESTRTAYMELLSLTYEDTAVYYCTREGNWEGVYWGQGTPVTVSA
VL: B1 VL with I2V, L11I, V63I, S105G
notes: Humanized IgG1/kappa, expressed in CHO cells; also called humanized Pyr12.2 variant H9L8; VH9/VL8
As for B2, the Kd with AβpE3-40 monomer [3] came out at 2.7 nM; with AβpE3-42 protofibrils [19] it was 0.464 nM. The koff with AβpE3-40 monomer [3] turned out to be 0.000139 s⁻¹; in the test with AβpE3-42 protofibrils [9], 2.05e-05 s⁻¹. The kon with AβpE3-40 monomer [3] came to 53700 M⁻¹ s⁻¹; with AβpE3-42 protofibrils [9] it was 44300 M⁻¹ s⁻¹. In addition, the IC50 with Aβ3-28 monomer [10] was 1790 nM; in the test with AβpE11-28 monomer it was > 12500 nM; in the test with Aβ5-28 monomer, > 12500 nM; in the test with Aβ2-28 monomer it was > 12500 nM; in the test with AβpE3-28 monomer [11], 3.5 nM; with Aβ1-28 monomer [12], > 12500 nM. The IC50 is > 12500 nM with Aβ4-28 monomer; > 500 nM with Aβ1-42 protofibrils [14]; > 12500 nM in the test with Aβ1-40 monomer [15]; 2.1 nM in the test with AβpE3-40 monomer [16]; 4.9 nM with AβpE3-42 protofibrils [17].

B3: H2L7-K12V/R71A (antibody, human IgG1, kappa)
heavy: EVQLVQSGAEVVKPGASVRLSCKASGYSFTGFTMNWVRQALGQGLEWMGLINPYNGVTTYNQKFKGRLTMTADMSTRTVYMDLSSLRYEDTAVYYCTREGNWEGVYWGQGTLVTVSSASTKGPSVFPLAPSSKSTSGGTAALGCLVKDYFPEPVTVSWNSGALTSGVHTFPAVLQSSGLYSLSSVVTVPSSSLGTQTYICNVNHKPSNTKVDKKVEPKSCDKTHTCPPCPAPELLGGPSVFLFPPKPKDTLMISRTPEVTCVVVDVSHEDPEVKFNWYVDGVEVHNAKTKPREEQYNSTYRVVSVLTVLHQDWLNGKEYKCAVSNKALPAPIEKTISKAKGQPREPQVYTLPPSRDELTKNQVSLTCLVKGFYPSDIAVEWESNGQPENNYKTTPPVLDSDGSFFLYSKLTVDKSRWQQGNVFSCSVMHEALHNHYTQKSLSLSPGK
light: EIVLTQSPLSLSVTLGQSASISCRSSQSLLDSNGKTYLHWFILRPGQSPRRLIYLVSILDSGVPDRFSGSGSGTDFTLKISRVEAEDVGVYYCVQGTHFPFTFGSGTKLEIKRTVAAPSVFIFPPSDEQLKSGTASVVCLLNNFYPREAKVQWKVDNALQSGNSQESVTEQDSKDSTYSLSSTLTLSKADYEKHKVYACEVTHQGLSSPVTKSFNRGEC
notes: VH variant of H2L7; VL and constant domains identical to H2L7
B3: the values for the Kd in the test with AβpE3-42 protofibrils [20] and with AβpE3-40 monomer [8] were 0.477 nM and 4.14 nM, respectively. The 50% inhibitory concentration (IC50) with Aβ3-28 monomer [1] was 2820 nM; with AβpE3-28 monomer [2], 3 nM; with Aβ1-28 monomer [21] it was 10200 nM; in the test with Aβ1-42 protofibrils [4], > 132 nM; in the test with Aβ1-40 monomer [5], > 500 nM; with AβpE3-40 monomer [6], 1.69 nM. Further, the IC50 with AβpE3-42 protofibrils [7] came to 3.58 nM. Moreover, the koff in the test with AβpE3-40 monomer [8] worked out at 0.000233 s⁻¹; with AβpE3-42 protofibrils [18] it was 2.92e-05 s⁻¹. For the same molecule, the results for the kon with AβpE3-40 monomer [8] and in the test with AβpE3-42 protofibrils [18] were 59000 M⁻¹ s⁻¹ and 61200 M⁻¹ s⁻¹, respectively.
